In patent publication US20230287143A1 one finds EC50 data, which are given here for two substances.

One test addresses CHO-K1/hu OX40 (human) (UniProt P43489). In words: FACS.
Test [1] deals with human 4-1BB (human) (UniProt Q07011). In words: FACS; panel A. In general terms: A flow cytometer gives signals particle by particle.
Test [2] has the same target. Nature of the test: FACS; panel C.

The term EC50 denotes the concentration at which the effect is half-maximal. The low end stands for an effect from little substance, the high end for a need for much substance.

Sequence of human 4-1BB (human) (Q07011 24-255): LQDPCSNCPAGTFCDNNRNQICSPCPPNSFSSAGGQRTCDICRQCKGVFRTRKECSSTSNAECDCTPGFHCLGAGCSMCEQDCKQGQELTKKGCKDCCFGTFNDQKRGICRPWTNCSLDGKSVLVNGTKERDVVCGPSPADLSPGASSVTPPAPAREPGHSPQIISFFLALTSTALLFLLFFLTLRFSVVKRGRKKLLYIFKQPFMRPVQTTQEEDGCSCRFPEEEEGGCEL
Sequence of CHO-K1/hu OX40 (human) (P43489 29-277): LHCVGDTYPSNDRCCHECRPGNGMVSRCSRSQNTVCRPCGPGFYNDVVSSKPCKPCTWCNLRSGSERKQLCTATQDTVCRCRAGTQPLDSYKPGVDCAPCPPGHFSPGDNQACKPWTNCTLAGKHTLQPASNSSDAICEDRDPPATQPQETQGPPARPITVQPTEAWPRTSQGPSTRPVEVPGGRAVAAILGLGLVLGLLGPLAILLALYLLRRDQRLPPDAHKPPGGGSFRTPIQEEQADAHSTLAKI

In the test with CHO-K1/hu OX40 (human), Pogalizumab displayed an EC50 of 1.15 nM. That is a single-digit nanomolar value. In the case of “Anti-4-1BB monoclonal antibody Urelumab analog (hIgG4)”, the EC50 with human 4-1BB (human) [1] is 0.347 nM; in the test with human 4-1BB (human) [2], 1.01 nM.
